Measurements taken from patent US7049292 (dated 2006).

B1: preproinsulin C4-C27 (peptide)
chain: DLQVGQVELGGGPGAGSLQPLALE
B2: preproinsulin C22-A5 (peptide)
chain: QPLALEGSLQKRGIVEQ
B3: preproinsulin C19-A3 (peptide)
chain: GSLQPLALEGSLQKRGIV
B4: preproinsulin C13-C32 (peptide)
chain: GGGPGAGSLQPLALEGSLQK

Target: HLA-DR4 (human)
Assay: competition

Binder | IC50
B1 | 33000 nM
B2 | 400 nM
B3 | 500 nM
B4 | 5000 nM
